# Laboratory results: patent US8313920B2, “High-throughput assay for evaluating dipeptidyl peptidase I activity” (Janssen Research & Development, LLC, priority 2008, dated 2012)
# B1: dipeptidyl peptidase I (DPPI) (Homo sapiens) (protein)
# chain 1: not shown
# chain 2: LPTSWDWRNVHGINFVSPVRNQASCGSCYSFASMGMLEARIRILTNNSQTPILSPQEVVSCSQYAQGCEGGFPYLIAGKYAQDFGLVEEACFPYTGTDSPCKMKEDCFRYYSSEYHYVGGFYGGCNEALMKLELVHHGPMAVAFEVYDDFLHYKKGIYHHTGLR
# chain 3: not shown
# notes: made in house; host or cells: Hi5 insect cells (baculovirus)
# Substrate: CC[C@H](C)[C@H](NC(=O)[C@H](CCC(=O)O)NC(=O)CN)C(=O)N[C@H](C(=O)NCC(=O)NCC(=O)N[C@H](C(=O)N[C@@H](CCC(=O)O)C(=O)N[C@@H](CS)C(=O)N[C@@H](CCCCN)C(=O)N1CCC[C@H]1C(=O)N[C@@H](Cc1c[nH]cn1)C(=O)N[C@@H](CO)C(=O)N[C@@H](CCCNC(=N)N)C(=O)N1CCC[C@H]1C(=O)N[C@@H](Cc1ccc(O)cc1)C(=O)N[C@@H](CCSC)C(=O)N[C@@H](C)C(=O)N[C@@H](Cc1ccc(O)cc1)C(=O)N[C@@H](CC(C)C)C(=O)O)[C@@H](C)O)[C@@H](C)CC
# Assay: Initial velocity analysis of DPPI with the 20-mer substrate, mass spectrometry
# Format: biochemical, human
# Details: other: 20-mer as DPPI substrate, about 2 nM DPPI, pH 7.0, about 27° C.
# Protocol: FIG. 1. Initial velocity analysis for DPP1 kinetic constant in reaction with a 20-mer substrate (A) and a dipeptide substrate (B). (A) About 2 nM of DPPI was used in the reaction with the 20-mer substrate of […] (SEQ ID NO:1) and the reaction was monitored using a mass spectrometry system. (B) About 0.4 nM of DPP1 was used in the reaction with the dipeptide substrate of GR-α-methylcoumarin and the reaction was monitored using a rate-based format monitoring fluorescence at EM=460 nm and EX=380 nm. Initial rates are taken from kinetic data where less than 7% substrate turnover was achieved.
# Once the rate of the substrate turnover under the initial velocity condition, the kinetic constants for DPPI and the peptide substrate are calculated using the following formula (I): Y=VMAX((X+Et+KM)−((((Et+X+KM)^2)−(4XEt))^0.5))/(2Et) wherein • Y is concentration of substrate turnover • X is substrate concentration • Et is DPPI concentration • KM is substrate concentration at ½ VMAX • VMAX is substrate turnover at substrate saturation
# About 2 nM of DPPI was incubated with about 0.5, 1, 2, 4, 8, 16, 32, 64, 90, 128, 150 μM of the 20-mer substrate in the reaction buffer of 50 mM HEPES (pH 7.0), 100 mM NaCl, 0.005% Tween-20, and 2 mM of DTT or GSH. […]
protein,measurement,value
B1,Km,62 µM
